Ends that are not written are not given here. * marks the point of attachment. Biotin = O=C1N[C@H]2[C@H](CS[C@H]2CCCCC(=O)*)N1
What was measured:
Assay in all cases: A/G assays
[1] = target: T1, GST-RGS12 PDZ domain fusion protein (human, UniProt O14924 17-85)
T1 construct: also called human regulator of G-protein signalling 12; not shown: glutathione S-transferase (GST) encoded by pGEX-3X
T1 sequence: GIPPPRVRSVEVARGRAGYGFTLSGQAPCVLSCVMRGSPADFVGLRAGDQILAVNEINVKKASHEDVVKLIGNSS

[2] = target: T2, GST-MPP1 PDZ domain fusion protein (Homo sapiens (Human), UniProt Q00013 67-152)
T2 construct: also called 55 Kd erythrocyte membrane protein; not shown: glutathione S-transferase (GST) encoded by pGEX-3X
T2 sequence: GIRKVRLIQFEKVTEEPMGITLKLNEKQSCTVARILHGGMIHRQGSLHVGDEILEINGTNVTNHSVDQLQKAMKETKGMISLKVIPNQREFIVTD

[3] = target: T3, GST-NOS1 PDZ domain fusion protein (human, UniProt P29475 11-101)
T3 construct: also called human neuronal nitric oxide synthase; not shown: glutathione S-transferase (GST) encoded by pGEX-3X
T3 sequence (P29475 other isoform, or with tags, fused parts or gaps): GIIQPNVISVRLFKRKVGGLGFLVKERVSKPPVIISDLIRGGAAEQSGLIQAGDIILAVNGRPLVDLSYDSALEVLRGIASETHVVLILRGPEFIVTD

[4] = target: T4, GST-KIAA0303 PDZ domain fusion protein (Homo sapiens (Human), UniProt O15021 1138-1229)
T4 construct: also called K303; not shown: glutathione S-transferase (GST) encoded by pGEX-3X
T4 sequence: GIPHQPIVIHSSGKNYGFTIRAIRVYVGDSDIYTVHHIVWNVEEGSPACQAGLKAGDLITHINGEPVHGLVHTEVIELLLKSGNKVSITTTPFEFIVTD

[5] = target: T5, GST-KIAA0559 PDZ domain fusion protein (Homo sapiens (Human), UniProt Q9Y6V0 4489-4594)
T5 construct: also called K559; not shown: glutathione S-transferase (GST) encoded by pGEX-3X
T5 sequence: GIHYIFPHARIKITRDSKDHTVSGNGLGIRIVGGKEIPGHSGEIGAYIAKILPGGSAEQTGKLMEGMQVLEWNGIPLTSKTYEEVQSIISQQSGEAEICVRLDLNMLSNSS

[6] = target: T6, GST-TAX43 PDZ domain fusion protein (human, UniProt Q13884 109-180)
T6 construct: not shown: glutathione S-transferase (GST) encoded by pGEX-3X
T6 sequence: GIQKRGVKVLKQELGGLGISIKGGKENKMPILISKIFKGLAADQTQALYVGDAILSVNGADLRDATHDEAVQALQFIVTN

[7] = target: T7, GST-KIAA0316 PDZ domain fusion protein (Homo sapiens (Human), UniProt Q14CM0 72-159)
T7 construct: also called K316; not shown: glutathione S-transferase (GST) encoded by pGEX-3X
T7 sequence (Q14CM0 other isoform, or with tags, fused parts or gaps): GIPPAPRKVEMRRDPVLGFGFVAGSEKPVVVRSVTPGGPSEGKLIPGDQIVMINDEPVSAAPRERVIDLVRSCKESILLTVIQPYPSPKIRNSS

[8] = target: T8, GST-PTN-4 PDZ domain fusion protein (Homo sapiens (Human), UniProt P29074 517-605)
T8 construct: also called protein-tyrosine phosphatase meg1; not shown: glutathione S-transferase (GST) encoded by pGEX-3X
T8 sequence: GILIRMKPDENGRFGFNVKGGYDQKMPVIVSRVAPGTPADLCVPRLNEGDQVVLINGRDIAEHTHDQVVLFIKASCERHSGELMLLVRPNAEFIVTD

[9] = target: T9, GST-LIMK2 PDZ domain fusion protein (human, UniProt P53671 147-237)
T9 construct: also called human LIM domain kinase 2; not shown: glutathione S-transferase (GST) encoded by pGEX-3X
T9 sequence: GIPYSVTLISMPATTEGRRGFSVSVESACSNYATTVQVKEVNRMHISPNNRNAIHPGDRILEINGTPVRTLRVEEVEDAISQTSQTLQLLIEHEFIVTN

[10] = target: T10, GST-DVL1 PDZ domain fusion protein (human)
T10 construct: also called human dishevelled segment polarity protein homolog; not shown: glutathione S-transferase (GST) encoded by pGEX-3X
T10 chain: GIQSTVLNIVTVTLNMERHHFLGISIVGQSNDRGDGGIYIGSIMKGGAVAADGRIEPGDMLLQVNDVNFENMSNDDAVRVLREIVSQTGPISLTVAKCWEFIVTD

[11] = target: T11, GST-TAX33 PDZ domain fusion protein (Homo sapiens (Human), UniProt O14910 103-194)
T11 construct: not shown: glutathione S-transferase (GST) encoded by pGEX-3X
T11 sequence: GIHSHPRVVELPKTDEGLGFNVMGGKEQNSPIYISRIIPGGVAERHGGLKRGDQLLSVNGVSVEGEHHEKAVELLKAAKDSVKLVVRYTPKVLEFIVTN

[12] = target: T12, GST-CASK PDZ domain fusion protein (mouse, UniProt O14936 485-575 (human entry))
T12 sequence: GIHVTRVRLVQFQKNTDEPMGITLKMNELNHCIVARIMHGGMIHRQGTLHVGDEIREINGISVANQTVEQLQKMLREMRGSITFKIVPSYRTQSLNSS

[13] = target: T13, GST-MPP2 PDZ domain fusion protein
T13 construct: also called maguk p55 subfamily member 2 (DLG2); MMP2; not shown: glutathione S-transferase (GST) encoded by pGEX-3X
T13 chain: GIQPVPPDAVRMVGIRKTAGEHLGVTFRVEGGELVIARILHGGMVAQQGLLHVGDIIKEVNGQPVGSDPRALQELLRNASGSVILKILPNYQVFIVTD

[14] = target: T14, GST-CBP (Cytohesin binding protein HE) PDZ domain fusion protein (Homo sapiens (Human), UniProt O60759 74-165)
T14 construct: not shown: glutathione S-transferase (GST) encoded by pGEX-3X
T14 sequence: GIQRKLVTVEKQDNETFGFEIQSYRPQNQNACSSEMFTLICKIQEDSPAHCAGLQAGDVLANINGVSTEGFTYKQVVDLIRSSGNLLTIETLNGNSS

[15] = target: T15, GST-TAX40 PDZ domain fusion protein (human, UniProt Q6B4M5 150-251 (rat entry))
T15 construct: not shown: glutathione S-transferase (GST) encoded by pGEX-3X
T15 sequence: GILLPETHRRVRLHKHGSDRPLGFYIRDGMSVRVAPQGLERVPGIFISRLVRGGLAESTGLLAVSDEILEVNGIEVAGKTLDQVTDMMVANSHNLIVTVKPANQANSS

[16] = target: T16, GST-prIL16 PDZ domains 1-2 fusion protein (Homo sapiens (Human), UniProt Q14005 1110-1325)
T16 construct: also called putative interleukin 16 precursor; not shown: glutathione S-transferase (GST) encoded by pGEX-3X
T16 sequence: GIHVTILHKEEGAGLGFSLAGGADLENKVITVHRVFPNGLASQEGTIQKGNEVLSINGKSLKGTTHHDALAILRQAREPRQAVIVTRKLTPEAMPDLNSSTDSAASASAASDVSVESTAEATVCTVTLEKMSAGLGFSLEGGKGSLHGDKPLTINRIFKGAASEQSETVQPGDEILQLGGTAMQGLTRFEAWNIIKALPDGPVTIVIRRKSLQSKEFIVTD

Measured: binding result

Biotin-TIYENLAPVTTFGKTIA [CD148 peptide AA55L (ending KTIA)]
no binding: all assays above

Biotin-QATSRNGHSARQHVVADTEL [CD34 C-terminal peptide AA7L]
no binding: all assays above

Source: patent publication US6942981
